14 molecules from publication PMC12671567 (Cancer research, 2026) can be followed below.

Positions count from the first letter of the chain named.

First the molecules themselves.
B1: recombinant 68A11A1 antibody (IgG1 isotype), anti-Siglec-10 monoclonal antibody (antibody, V domains shown)
VH: EVKLVESGGGLVQPGGSLSLSCAASGFTFTDYYMSWVRQPPGKALEWLGFIRNKVSGYTTDYSSSVKGRFTFSRDNSQSIVYLHMNALRAEDSATYYCTRYVSLWLLGYFDVWGTGTTVTVSS
VL: DVQLTQSPSYLAASPGETITINCRTSKSISKYLAWYQEKPGKTNKLLIYSGSTLQSGIPSRFSGSGSGTDFTLTISSLEPEDFAMYYCQQHNEYPLTFGAGTKLELK
B2: 31E6H8 (antibody, V domains shown)
VH: EVKLVESGGGLVQPGGSLSLSCAASGFTFTDYYMTWVRQPPGKALEWLGFIRNKANGYTTEYSASVKGRFTISRDNSQSILSLQMNALSAEDSATYYCASLVLRGFAYWGQGTLVTVSA
VL: not shown
B3: 36F7B3 (antibody, V domains shown)
VH: B2 VH with G49C, S82Y, M85V, S89R, S100T, L101Y, F106L
VL: not shown
B4: 66E8F8 (antibody, V domains shown)
VH: B2 VH with T35S, G49C, S82Y, M85V, S89R, S100T, L101Y, F106L
VL: not shown
B5: 56C3E6 (antibody, V domains shown)
VH: B2 VH with K3N, G16D, A24T, T35S, S82Y, S89R, A90P, L101P, Q111R
VL: DIQMTQSPASLSASVGETVTITCRASGNIHNYLAWYQQKQGKSPQLLVYNAKTLADGVPSRFSGSGSGTQYSLKINSLQPEDFGSYYCQHFWSTPFTFGSGTKLEIK
B6: 35G6G1 (antibody, V domains shown)
VH: B2 VH with T30A, Y58F, S82Y, S89R, S100R, L101Y, V102G
VL: DIVMTQSPSSLAMSVGQKVTLNCKSSQSLLNSSNQKNYLAWYQQKPGQSPKLLVYFASTRESGVPDRFIGSGSGTDFTLTISSVQAEDLADYFCHQHYSTPFTFGSGTKLEMK
B7: 35B3F9 (antibody, V domains shown)
VH: B1 VH with S19R, Y62N, S64A, F72I, N76D, H84Q, A87D, T99A
VL: B1 VL with L4I, T25A, A100T
B8: 73D4G2 (antibody, V domains shown)
VH: EVRLVESGGGLVQPGGSLRLSCAASGFTFTDYYMSWVRQPPGKALEWLGFIRNKPSGYTTEYSASVKGRFTISRDNSQSILYLQMNALRAEDSATYYCARYISLWLLGYLDVWGTGTTVTVSS
VL: B1 VL with L4I, T20I
B9: 38D6A8 (antibody, V domains shown)
VH: B8 VH with R3K, R19S, P55A, S79N, S93G, A99V, L110F
VL: B1 VL with L4I, T25A, E93D
B10: 54C2F11 (antibody, V domains shown)
VH: B8 VH
VL: B1 VL with L4I, T20I, K107N
B11: 48D6F4 (antibody, V domains shown)
VH: B8 VH with I72F
VL: B1 VL with L4I, T20I, K45N, T72S, M85I, K107N
B12: 68B1E2 (antibody, V domains shown)
VH: B8 VH with R3K, R19S, P55A, S63N, S79N, S93G, A99V, L110F
VL: B1 VL with L4I, T25A, E93D
B13: 38B2G5 (antibody, V domains shown)
VH: QVQLQQSGAEVAKPGASVKLSCKASGYTFTSYWMHWVKQRPGQGLEWIGYINPSNNYTKYNQKFNDKATLTADKSSSTAYMQLSSLTYEDSALYYCARVYYYGNSPAWFAYWGQGTLVTVSA
VL: QIVLSQSPAILSASPGEKVTMTCRASSSVSYMHWYQQKPGSSPKPWIYATSNLASGVPARFSGSGSGTSYSLTISRVEAEDAATYYCQQWTSNPPTFGGGTKLEIK
B14: 22F1A9 (antibody, V domains shown)
VH: EVQLVESGGGLVKPGGSLKLSCAASGFTFSSYAMSWVRQTPEKRLEWVATISDGGSYTYYPDNVKGRFTISRDNTKNNLYLQMSHLKSEDTAMFYCARDLSPLYYRGPMDYWGQGTSVTVSS
VL: DIQMTQSPASLSASLGERVSLTCRASQDIGSSLNWLQQEPDGTIKRLIYATSSLDSGVPKRFSGSRSGSDYSLTISSLESEDFVDYYCLQYASSPFTFGSGTKLEIK

The target in the first assay is Siglec-5 antigen (recombinant Siglec-5 protein coated in ELISA) (Homo sapiens (assumed), UniProt O15389). Kind of assay: ELISA.
Sequence of Siglec-5 antigen (recombinant Siglec-5 protein coated in ELISA) (O15389 17-551): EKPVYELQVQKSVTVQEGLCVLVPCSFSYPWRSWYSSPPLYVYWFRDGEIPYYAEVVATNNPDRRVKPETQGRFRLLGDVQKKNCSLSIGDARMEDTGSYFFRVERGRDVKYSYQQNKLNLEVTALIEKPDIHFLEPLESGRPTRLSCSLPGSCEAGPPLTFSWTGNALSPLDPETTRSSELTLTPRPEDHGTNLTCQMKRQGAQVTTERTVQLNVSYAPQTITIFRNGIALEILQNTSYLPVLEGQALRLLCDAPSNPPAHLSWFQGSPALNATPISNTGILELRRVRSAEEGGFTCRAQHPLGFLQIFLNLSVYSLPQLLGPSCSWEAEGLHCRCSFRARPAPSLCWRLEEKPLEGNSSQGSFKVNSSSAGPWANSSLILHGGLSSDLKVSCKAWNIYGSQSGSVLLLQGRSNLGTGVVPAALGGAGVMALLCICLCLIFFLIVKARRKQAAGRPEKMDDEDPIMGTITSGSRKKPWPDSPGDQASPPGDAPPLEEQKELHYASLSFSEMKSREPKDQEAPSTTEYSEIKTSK
On to B1, for which the binding result is given as “no binding”.

In the next assay the target is recombinant human Siglec-10 protein (Siglec-10 antigen coated in ELISA) (Homo sapiens (Human)., UniProt Q96LC7).
Sequence of recombinant human Siglec-10 protein (Siglec-10 antigen coated in ELISA) (Q96LC7 17-550): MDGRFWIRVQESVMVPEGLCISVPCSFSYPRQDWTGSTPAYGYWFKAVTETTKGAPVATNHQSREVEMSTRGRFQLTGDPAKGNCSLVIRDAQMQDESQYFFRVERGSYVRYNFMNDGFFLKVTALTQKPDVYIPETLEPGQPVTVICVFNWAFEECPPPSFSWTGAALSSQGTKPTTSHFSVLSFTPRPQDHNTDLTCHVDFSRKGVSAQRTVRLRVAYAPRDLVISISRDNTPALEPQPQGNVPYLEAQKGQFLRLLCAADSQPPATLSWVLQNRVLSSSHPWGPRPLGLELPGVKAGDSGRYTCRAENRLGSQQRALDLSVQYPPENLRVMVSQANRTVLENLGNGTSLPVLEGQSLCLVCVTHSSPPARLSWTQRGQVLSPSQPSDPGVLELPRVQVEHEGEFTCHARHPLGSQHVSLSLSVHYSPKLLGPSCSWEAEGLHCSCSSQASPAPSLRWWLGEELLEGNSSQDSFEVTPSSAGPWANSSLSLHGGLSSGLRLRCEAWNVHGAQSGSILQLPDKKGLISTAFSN
Assay: not given
Turning to B2, the binding result is “binds”.
On the same count and under the same terms, the value for B3 was “binds”; that for B4 was “binds”.
The same measure, in the same setting: for B5 the value was “binds”.
Still for that read-out and setting: the value for B6 was “binds”.
For the molecule B7, the binding result is reported as “binds”.
The same measure, in the same setting: the value for B8 was “binds”; that for B9 was “binds”; that for B10 was “binds”.
Still for that read-out and setting: the value for B11 was “binds”; that for B12 was “binds”.
On the same count and under the same terms, the value for B13 was “binds”; that for B14 was “binds”.
